Results on 8 proteins are retold here after publication PMC2801813 (Biochemistry, 2009).

Numbering of substitutions follows the chain as printed. In names and notes the source's numbering stands. Several values for one entry are separate records, joined by “and”; a condition that tells them apart may be missing. Equal entries are not always repeated.

Substrate in series [1]: O=C(O)C(=O)O
Description: purified protein. The settings on record: buffer and temperature same.

Series [2] concerns the molecule itself. Description: SEC. A general note: In gel filtration, larger molecules generally elute earlier.

B1: OxDC (oxalate decarboxylase) (Bacillus subtilis subsp. subtilis str. 168; E101Q/E280Q) (protein)
chain: MKKQNDIPQPIRGDKGATVKIPRNIERDRQNPDMLVPPETDHGTVSNMKFSFSDTHNRLEKGGYAREVTVRELPISENLASVNMRLKPGAIRELHWHKEAQWAYMIYGSARVTIVDEKGRSFIDDVGEGDLWYFPSGLPHSIQALEEGAEFLLVFDDGSFSENSTFQLTDWLAHTPKEVIAANFGVTKEEISNLPGKEKYIFENQLPGSLKDDIVEGPNGEVPYPFTYRLLEQEPIESEGGKVYIADSTNFKVSKTIASALVTVEPGAMRELHWHPNTHQWQYYISGKARMTVFASDGHARTFNYQAGDVGYVPFAMGHYVENIGDEPLVFLEIFKDDHYADVSLNQWLAMLPETFVQAHLDLGKDFTDVLSKEKHPVVKKKCSK
In general, Km refers to the concentration of substrate that gives half-maximal velocity. As a reminder, the kcat is the maximal rate divided by the concentration of active sites. The term kcat/Km denotes the turnover number divided by the Michaelis constant. On to B1, for which, in series [1] (0.07 Mn/monomer), the Km turned out to be 2.9 ± 0.3 mM, the kcat was determined as 0.012 ± 0.0003 s⁻¹ and the kcat/Km is 4 M⁻¹ s⁻¹.

B2: OxDC (oxalate decarboxylase) (Bacillus subtilis subsp. subtilis str. 168; E101D) (protein)
chain: B1 chain with Q101D, Q280E
As to B2, in series [1] (0.09 Mn/monomer), the Km was 3.4 ± 0.1 mM, the catalytic constant (kcat) is 0.49 ± 0.01 s⁻¹ and the specificity constant (kcat/Km) came to 144 M⁻¹ s⁻¹.

B3: OxDC (oxalate decarboxylase) (Bacillus subtilis subsp. subtilis str. 168; E280A) (protein)
chain: B1 chain with Q101E, Q280A
Turning to B3, in series [1] (0.67 Mn/monomer), the Km is 3.0 ± 0.2 mM, the kcat amounted to 0.019 ± 0.001 s⁻¹ and the specificity constant (kcat/Km) turned out to be 6 M⁻¹ s⁻¹.

B4: OxDC (oxalate decarboxylase) (Bacillus subtilis subsp. subtilis str. 168; E101A) (protein)
chain: B1 chain with Q101A, Q280E
With B4, in series [1] (0.18 Mn/monomer), the Km came to 2.9 ± 0.3 mM, the kcat was 0.046 ± 0.002 s⁻¹ and the kcat/Km amounted to 16 M⁻¹ s⁻¹.

B5: OxDC (oxalate decarboxylase) (Bacillus subtilis subsp. subtilis str. 168; E280D) (protein)
chain: B1 chain with Q101E, Q280D
For the protein B5, in series [1] (0.64 Mn/monomer), the Km was determined as 5.4 ± 0.4 mM, the kcat came out at 0.14 ± 0.01 s⁻¹ and the kcat/Km came out at 26 M⁻¹ s⁻¹.

B6: OxDC (oxalate decarboxylase) (Bacillus subtilis subsp. subtilis str. 168; E280Q) (protein)
chain: B1 chain with Q101E
For the protein B6, in series [1] (0.73 Mn/monomer), the Km was 10.1 ± 0.6 mM, the kcat is 0.62 ± 0.01 s⁻¹ and the kcat/Km amounted to 61 M⁻¹ s⁻¹.

B7: recombinant, wild-type Bacillus subtilis oxalate decarboxylase (enzyme, UniProt O34714 1-385, looked up)
chain: B1 chain with Q101E, Q280E
By stoichiometry N is commonly meant the number of molecules, sites or subunits per partner or assembly. For the protein B7, the “stoichiometry N” value in series [2] is 6 and 12 monomers to 18 monomers (2×).

B8: OxDC (oxalate decarboxylase) (Bacillus subtilis subsp. subtilis str. 168; E101Q) (protein)
chain: B1 chain with Q280E
For the protein B8, in series [1] (0.11 Mn/monomer), the Km came to 4.0 ± 0.2 mM, the catalytic constant (kcat) was 0.62 ± 0.01 s⁻¹ and the kcat/Km worked out at 155 M⁻¹ s⁻¹.
